Laboratory results as given in doi:10.1101/2022.04.27.489743 (bioRxiv, 2022).

Legend:
Test in all cases: ITC
AnkG R6-16 = AnkG R6-16 (UniProt O70511)
[1] = biological target: T1, AnkG 275-571 (AnkG R8-16) (UniProt O70511 275-571)
T1 sequence: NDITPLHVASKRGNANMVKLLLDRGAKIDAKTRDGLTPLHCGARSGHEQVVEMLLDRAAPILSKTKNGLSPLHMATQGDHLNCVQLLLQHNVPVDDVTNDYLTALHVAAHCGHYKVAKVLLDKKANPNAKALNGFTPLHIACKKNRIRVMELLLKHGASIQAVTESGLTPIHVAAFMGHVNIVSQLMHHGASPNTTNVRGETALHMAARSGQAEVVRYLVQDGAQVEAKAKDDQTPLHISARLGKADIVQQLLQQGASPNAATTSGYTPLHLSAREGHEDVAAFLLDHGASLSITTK

[2] = biological target: T2, AnkG ANK repeats (R1-24, residues 38-855) (UniProt O70511 38-855)
T2 sequence: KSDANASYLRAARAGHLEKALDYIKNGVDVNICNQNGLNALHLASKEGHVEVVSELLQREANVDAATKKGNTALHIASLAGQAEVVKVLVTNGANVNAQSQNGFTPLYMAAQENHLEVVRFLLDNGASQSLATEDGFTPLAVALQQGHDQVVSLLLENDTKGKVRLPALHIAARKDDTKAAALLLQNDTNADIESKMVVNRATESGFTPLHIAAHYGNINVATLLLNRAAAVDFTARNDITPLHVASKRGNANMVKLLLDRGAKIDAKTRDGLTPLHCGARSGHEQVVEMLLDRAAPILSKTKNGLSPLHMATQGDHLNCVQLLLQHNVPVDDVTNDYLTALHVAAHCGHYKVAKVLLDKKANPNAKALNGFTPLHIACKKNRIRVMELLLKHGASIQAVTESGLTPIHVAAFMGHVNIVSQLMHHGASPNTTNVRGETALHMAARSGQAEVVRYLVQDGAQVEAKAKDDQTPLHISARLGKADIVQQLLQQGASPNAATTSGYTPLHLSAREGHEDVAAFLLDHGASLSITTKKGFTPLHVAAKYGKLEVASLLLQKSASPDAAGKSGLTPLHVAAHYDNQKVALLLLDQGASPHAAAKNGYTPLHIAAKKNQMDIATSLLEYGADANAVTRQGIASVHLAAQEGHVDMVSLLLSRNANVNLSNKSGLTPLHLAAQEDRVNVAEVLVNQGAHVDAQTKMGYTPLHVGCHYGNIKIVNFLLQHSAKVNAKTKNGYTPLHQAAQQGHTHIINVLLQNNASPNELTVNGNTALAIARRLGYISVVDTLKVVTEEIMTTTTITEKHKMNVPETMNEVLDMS

AnkG R6-16, sequence (O70511 whole entry): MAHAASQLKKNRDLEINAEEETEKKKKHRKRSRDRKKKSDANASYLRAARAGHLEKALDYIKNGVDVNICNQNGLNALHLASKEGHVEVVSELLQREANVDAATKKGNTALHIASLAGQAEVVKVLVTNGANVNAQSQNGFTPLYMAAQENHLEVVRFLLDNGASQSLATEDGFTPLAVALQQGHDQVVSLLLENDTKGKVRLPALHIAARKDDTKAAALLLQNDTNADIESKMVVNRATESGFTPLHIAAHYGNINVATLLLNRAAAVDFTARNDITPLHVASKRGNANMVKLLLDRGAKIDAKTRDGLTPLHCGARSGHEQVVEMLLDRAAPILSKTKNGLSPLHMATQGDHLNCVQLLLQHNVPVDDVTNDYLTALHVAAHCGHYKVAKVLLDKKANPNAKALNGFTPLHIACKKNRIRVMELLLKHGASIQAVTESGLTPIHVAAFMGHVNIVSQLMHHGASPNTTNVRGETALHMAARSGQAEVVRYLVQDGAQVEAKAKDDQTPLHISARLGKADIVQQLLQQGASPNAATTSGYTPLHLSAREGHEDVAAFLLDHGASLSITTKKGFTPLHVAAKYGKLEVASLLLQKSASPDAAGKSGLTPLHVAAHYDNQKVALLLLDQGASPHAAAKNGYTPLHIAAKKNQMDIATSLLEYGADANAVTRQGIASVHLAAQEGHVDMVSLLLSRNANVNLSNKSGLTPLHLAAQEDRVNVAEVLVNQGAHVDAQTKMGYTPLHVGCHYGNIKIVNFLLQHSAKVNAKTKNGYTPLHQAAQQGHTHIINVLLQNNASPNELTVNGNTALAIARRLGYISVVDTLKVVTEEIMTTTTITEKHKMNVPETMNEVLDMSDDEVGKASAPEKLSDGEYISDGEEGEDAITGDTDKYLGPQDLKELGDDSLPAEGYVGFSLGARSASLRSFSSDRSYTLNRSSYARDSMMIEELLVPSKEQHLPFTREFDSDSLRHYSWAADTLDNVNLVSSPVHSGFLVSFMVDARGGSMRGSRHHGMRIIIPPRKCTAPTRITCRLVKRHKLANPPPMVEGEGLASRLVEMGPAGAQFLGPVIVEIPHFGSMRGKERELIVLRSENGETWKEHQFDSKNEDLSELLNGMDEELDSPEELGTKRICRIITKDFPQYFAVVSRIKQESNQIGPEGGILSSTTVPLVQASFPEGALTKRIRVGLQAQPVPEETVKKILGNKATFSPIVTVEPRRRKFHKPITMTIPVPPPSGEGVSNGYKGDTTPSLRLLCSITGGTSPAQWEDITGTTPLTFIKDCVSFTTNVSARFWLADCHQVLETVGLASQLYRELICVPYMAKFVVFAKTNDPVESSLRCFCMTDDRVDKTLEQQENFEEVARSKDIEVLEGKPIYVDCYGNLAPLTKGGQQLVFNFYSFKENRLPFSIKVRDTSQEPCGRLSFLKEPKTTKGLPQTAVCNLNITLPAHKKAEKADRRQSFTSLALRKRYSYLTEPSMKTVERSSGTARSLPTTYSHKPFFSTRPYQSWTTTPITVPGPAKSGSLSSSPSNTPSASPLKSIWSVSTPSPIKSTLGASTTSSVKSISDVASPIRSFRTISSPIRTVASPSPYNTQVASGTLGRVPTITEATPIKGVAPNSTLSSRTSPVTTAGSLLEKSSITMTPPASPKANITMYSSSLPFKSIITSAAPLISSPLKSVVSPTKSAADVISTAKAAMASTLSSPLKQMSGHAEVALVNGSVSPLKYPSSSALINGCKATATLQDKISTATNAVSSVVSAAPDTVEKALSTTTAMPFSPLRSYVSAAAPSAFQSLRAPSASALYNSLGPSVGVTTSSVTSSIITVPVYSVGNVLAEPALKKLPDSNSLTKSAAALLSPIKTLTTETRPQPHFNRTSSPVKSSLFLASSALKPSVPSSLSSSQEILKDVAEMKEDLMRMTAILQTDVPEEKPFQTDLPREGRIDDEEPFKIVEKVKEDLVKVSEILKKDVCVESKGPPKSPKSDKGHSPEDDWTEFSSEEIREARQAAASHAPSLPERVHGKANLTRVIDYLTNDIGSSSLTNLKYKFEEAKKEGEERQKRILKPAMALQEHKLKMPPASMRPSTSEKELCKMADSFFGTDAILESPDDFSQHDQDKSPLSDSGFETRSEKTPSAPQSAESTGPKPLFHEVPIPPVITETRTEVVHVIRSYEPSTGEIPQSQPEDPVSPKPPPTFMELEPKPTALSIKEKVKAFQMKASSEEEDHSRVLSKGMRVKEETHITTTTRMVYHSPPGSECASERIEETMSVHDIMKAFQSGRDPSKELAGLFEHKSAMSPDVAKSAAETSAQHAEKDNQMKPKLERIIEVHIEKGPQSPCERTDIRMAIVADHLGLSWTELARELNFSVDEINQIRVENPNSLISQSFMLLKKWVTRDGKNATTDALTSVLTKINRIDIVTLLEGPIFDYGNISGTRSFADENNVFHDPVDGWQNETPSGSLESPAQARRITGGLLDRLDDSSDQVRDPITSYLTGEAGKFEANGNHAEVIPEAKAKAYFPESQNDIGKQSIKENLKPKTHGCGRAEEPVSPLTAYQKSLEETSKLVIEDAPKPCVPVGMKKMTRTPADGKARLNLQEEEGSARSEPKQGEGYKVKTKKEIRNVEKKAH

Molecule: Nfasc ankyrin binding domain (ABD), residues 1187-1214 (from UniProt P97685 1187-1214) (domain or fragment)
- Kd (AnkG R6-16): 290 nM

Molecule: SDDSLVDYGEGGEGQFNEDGSFIGQYTV (domain or fragment) [Nfasc ankyrin binding domain (ABD), residues 1187-1214]
- Kd [1]: ~1200 nM
- Kd [2]: ~220 nM

Molecule: GEGQFNADGSFIGQYTV [Nfasc 1198-1214 E1204A]
- fold decrease in binding affinity against Nfasc 1198-1214 WT [2]: ~27 fold

Molecule: GEGQFNEDGSFIGQETV [Nfasc 1198-1214 Y1212E]
- fold decrease in binding against Nfasc 1198-1214 WT [2]: ~9 fold

Molecule: GEGQQNEDGSFIGQYTV [Nfasc 1198-1214 F1202Q]
- fold decrease in binding against Nfasc 1198-1214 WT [2]: > 20 fold
